Experimental data from patent US20030126647A1 (published 2003).

T1: full-length FIS2 polypeptide (Arabidopsis thaliana, UniProt P0DKJ7 1-813, limits assumed)
T1 construct: The full-length FIS2 cDNA was cloned into pGBT9 and pGAD424; the vector-encoded fusion domain is not included
T1 sequence: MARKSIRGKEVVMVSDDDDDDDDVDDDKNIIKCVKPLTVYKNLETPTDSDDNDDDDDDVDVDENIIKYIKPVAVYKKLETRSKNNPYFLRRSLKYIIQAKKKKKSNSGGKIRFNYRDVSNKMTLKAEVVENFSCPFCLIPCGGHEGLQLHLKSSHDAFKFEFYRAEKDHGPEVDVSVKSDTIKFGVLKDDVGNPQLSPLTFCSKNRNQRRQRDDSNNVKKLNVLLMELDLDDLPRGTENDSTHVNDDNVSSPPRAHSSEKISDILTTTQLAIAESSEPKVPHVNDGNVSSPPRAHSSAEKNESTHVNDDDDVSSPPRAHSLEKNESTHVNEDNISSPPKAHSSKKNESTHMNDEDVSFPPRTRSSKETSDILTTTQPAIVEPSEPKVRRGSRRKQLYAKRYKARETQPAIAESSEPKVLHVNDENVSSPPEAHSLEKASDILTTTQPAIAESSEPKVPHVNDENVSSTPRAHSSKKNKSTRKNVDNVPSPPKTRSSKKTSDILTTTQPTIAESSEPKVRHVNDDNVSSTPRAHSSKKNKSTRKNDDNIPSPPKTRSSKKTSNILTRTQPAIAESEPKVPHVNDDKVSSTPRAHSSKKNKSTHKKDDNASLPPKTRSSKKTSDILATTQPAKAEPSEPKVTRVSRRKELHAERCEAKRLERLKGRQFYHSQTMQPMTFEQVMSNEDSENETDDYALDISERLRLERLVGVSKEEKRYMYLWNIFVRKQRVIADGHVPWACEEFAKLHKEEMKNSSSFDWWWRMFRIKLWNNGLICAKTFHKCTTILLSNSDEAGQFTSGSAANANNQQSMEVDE

B1: full-length FIS3 polypeptide (other)
chain: MSKITLGNESIVGSLTPSNKKSYKVTNRIQEGKKPLYAVVFNFLDARFFDVFVTAGGNRITLYNCLGDGAISALQSYADEDKEESFYTVSWACGVNGNPYVAAGGVKGIIRVIDVNSETIHKSLVGHGDSVNEIRTQPLKPQLVITASKDESVRLWNVETGICILIFAGAGGHRYEVLSVDFHPSDIYRFASCGMDTTIKIWSMKEFWTYVEKSFTWTDDPSKFPTKFVQFPVFTASIHTNYVDCNRWFGDFILSKSVDNEILLWEPQLKENSPGEGASDVLLRYPVPMCDIWFIKFSCDLHLSSVAIGNQEGKVYVWDLKSCPPVLITKLSHNQSKSVIRQTAMSVDGSTILACCEDGTIWRWDVITK
notes: The full-length FIS3 cDNA was cloned into pGBT9 and pGAD424; the vector-encoded fusion domain is not included; also called FIE
B2: full-length FIS1 polypeptide (other)
chain: MEKENHEDDGEGLPPELNQIKEQIEKERFLHIKRKFELRYIPSVATHASHHQSFDLNQPAAEDDNGGDNKSLLSRMQNPLRHFSASSDYNSYEDQGYVLDEDQDYALEEDVPLFLDEDVPLLPSVKLPIVEKLPRSITWVFTKSSQLMAESDSVIGKRQIYYLNGEALELSSEEDEEDEEEDEEEIKKEKCEFSEDVDRFIWTVGQDYGLDDLVVRRALAKYLEVDVSDILERYNELKLKNDGTAGEASDLTSKTITTAFQDFADRRHCRRCMIFDCHMHEKYEPESRSSEDKSSLFEDEDRQPCSEHCYLKVRSVTEADHVMDNDNSISNKIVVSDPNNTMWTPVEKDLYLKGIEIFGRNSCDVALNILRGLKTCLEIYNYMREQDQCTMSLDLNKTTQRHNQVTKKVSRKSSRSVRKKSRLRKYARYPPALKKTTSGEAKFYKHYTPCTCKSKCGQQCPCLTHENCCEKYCGCSKDCNNRFGGCNCAIGQCTNRQCPCFAANRECDPDLCRSCPLSCGDGTLGETPVQIQCKNMQFLLQTNKKILIGKSDVHGWGAFTWDSLKKNEYLGEYTGELITHDEANERGRIEDRIGSSYLFTLNDQLEIDARRKGNEFKFLNHSARPNCYAKLMIVRGDQRIGLFAERAIEEGEELFFDYCYGPEHADWSRGREPRKTGASKRSKEARPAR
notes: Expressed in yeast from the two-hybrid vectors pGBT9 and pGAD424, so it was a fusion with the vector-encoded domain; also called MEDEA/FIS1; MEA

How the values were obtained:
[1] = biological target: B2; assay: yeast two-hybrid
Source text: (§1) In particular, the full-length FIS1 cDNA sequence, encoding a 689 amino acid polypeptide comprising the A, C5, N, CXC and SET domains, and the deletion mutants designated: ΔBgl, encoding a 513 amino acid polypeptide and lacking the C-terminal SET domain-encoding region; ΔBcl, encoding a 320 amino acid polypeptide and lacking the C-terminal N, CXC and SET domain-encoding regions; ΔPst, encoding a 62 amino acid polypeptide and lacking the C-terminal portion of FIS1 comprising the five domain-encoding regions; and Δ160, lacking 160 bp at the 5′-end of the FIS1 cDNA, were constructed (FIG. 27). The full-length FIS2 and FIS3 cDNAs were also used. Control constructs, employing the empty vectors pGBT9 and pGAD424, or alternatively the EzA1 cDNA, were also used. Each cDNA was cloned into each vector and yeast were transformed with vectors expressing different FIS polypeptides, in the presence of adenine selection and β-Galactosidase activation, to select for cells expressing from both constructs.

[2] = biological target: T1, full-length FIS2 polypeptide; assay: yeast two-hybrid (pGBT9 / pGAD424, adenine selection and beta-galactosidase)
Source text: as §1

yeast two-hybrid = biological target: the molecule itself; assay: yeast two-hybrid
Source text: as §1

[3] = biological target: B1; assay: yeast two-hybrid
Source text: as §1

binding result [1] | binding result [2] | binding result [3] | Binder | binding result (yeast two-hybrid)
binds | no binding | – | B1 | –
– | – | – | B2 | binds
binds | – | binds | FIS1 deletion mutant Bcl (320 amino acid polypeptide comprising the A and C5 regions only) (other, Expressed as a yeast two-hybrid vector fusion (pGBT9 / pGAD424); the fusion domain is not included; also called delta-Bcl; truncated FIS1 having the C-terminal 369 amino acids containing the N, CXC and SET domains deleted) MEKENHEDDGEGLPPELNQIKEQIEKERFLHIKRKFELRYIPSVATHASHHQSFDLNQPAAEDDNGGDNKSLLSRMQNPLRHFSASSDYNSYEDQGYVLDEDQDYALEEDVPLFLDEDVPLLPSVKLPIVEKLPRSITWVFTKSSQLMAESDSVIGKRQIYYLNGEALELSSEEDEEDEEEDEEEIKKEKCEFSEDVDRFIWTVGQDYGLDDLVVRRALAKYLEVDVSDILERYNELKLKNDGTAGEASDLTSKTITTAFQDFADRRHCRRCMIFDCHMHEKYEPESRSSEDKSSLFEDEDRQPCSEHCYLKVRSVTEAD | –
